Measured values: US20090118183A1 (AFFYMAX, published 2009)
Where two headings read alike, the source gives them in different places. Blank lines part the entries; values can stand above or below the binder they belong to. Bridge positions count the residues as written; N and C are the ends. Square brackets hold non-standard residues; d marks the D form. Ends that are not written are not given here. 1Nal = N[C@@H](Cc1cccc2ccccc12)C(=O)O; Sar = CNCC(=O)O

Assays:
[1] = target: T1, human EPO-R (human, UniProt P19235 25-508); experiment: cell-based or functional assay
T1 sequence (looked up): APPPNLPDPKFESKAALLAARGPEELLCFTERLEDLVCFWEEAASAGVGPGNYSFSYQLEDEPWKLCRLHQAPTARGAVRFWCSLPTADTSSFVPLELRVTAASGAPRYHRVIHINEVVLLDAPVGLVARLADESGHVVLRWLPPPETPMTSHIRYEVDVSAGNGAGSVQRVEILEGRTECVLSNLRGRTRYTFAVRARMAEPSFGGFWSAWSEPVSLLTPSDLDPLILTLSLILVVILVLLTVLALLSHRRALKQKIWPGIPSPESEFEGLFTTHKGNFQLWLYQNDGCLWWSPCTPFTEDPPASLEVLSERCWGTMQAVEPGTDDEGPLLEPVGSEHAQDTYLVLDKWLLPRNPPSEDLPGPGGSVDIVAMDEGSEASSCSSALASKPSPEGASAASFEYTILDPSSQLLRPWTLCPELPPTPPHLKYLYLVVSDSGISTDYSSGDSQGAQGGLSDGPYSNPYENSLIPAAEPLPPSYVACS

[2] = target: T2, chimeric receptor comprising the extra-cellular portion of the human EPO receptor to the intra-cellular … (human, UniProt P19235 25-250; Q99062 651-836, limits assumed); experiment: cell-based or functional assay
T2 sequence (looked up): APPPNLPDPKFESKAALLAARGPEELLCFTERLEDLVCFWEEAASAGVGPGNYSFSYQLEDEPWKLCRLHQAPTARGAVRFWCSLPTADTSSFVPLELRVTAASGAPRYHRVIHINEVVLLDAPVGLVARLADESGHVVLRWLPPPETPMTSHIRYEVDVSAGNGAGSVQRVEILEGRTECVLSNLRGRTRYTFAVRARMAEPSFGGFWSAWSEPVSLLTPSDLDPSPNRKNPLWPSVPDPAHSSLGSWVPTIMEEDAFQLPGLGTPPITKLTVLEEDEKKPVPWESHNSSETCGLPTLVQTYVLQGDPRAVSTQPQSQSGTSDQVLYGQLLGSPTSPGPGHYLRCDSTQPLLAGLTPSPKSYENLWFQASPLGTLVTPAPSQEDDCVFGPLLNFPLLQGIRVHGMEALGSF

[3] = target: recombinant EPO-R (produced in Chinese Hamster Ovary cells as a fusion protein to a portion of the human … (human, UniProt P05187 489-506)); experiment: competitive binding; column headed only 'IC50 (pM)'; taken as the AQ bead proximity assay against the biotinylated peptide tracer (SEQ ID NO: 4) per paragraph 299
[4] = target: T1, human EPO-R; experiment: cell-based or functional assay; remark: listed apart in the source
[5] = target: T2, chimeric receptor comprising the …; experiment: cell-based or functional assay; remark: listed apart in the source
[6] = target: T3, Recombinant Human EPO R/Fc Chimera (human, UniProt P19235 25-250); experiment: radioligand competition: displacement of 125I-EPO from recombinant human EPO R/Fc, Protein-G Sepharose pull-down
T3 construct: extracellular domain; Bought reagent (R&D Systems, catalog 963-ER); also called recombinant EPOr extracellular domain fused to the Fc portion of human IgG1; recombinant erythropoietin receptor; not shown: Fc portion of human IgG1
T3 sequence (looked up): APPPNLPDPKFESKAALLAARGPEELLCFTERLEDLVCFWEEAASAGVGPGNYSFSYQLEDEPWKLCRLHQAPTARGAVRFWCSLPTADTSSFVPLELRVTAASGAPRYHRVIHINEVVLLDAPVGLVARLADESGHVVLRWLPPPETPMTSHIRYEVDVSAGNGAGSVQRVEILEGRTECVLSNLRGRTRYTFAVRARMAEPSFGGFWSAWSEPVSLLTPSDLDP

Proliferation EC50 [1]: 72 nM
Reporter EC50 (pM) [2]: 150 pM
B1: Peptide III (SEQ ID NO: 3) (peptide)
peptide: Ac-GGLYACHMGPIT[1Nal]VCQPLR[Sar]
modifications: disulfide 6-15; also: homodimer: C-termini joined to alpha- and epsilon-amino groups of a lysine linker carrying spacer and PEG, not shown

IC50 [3]: 0.11 nM
B2: Peptide II (SEQ ID NO: 3) (peptide)
peptide: Ac-GGLYACHMGPIT[1Nal]VCQPLR[Sar]
modifications: disulfide 6-15; also: homodimer: C-termini joined to alpha- and epsilon-amino groups of a lysine linker carrying spacer and PEG, not shown

Proliferation EC50 (pM) [4]: 165 pM
Reporter EC50 (pM) [5]: 195 pM
IC50 [6]: 0.111 nM
B3: Peptide I (SEQ ID NO: 2) (peptide)
peptide: Ac-GGLYACHMGPIT[1Nal]VCQPLR[Sar]K
modifications: disulfide 6-15; not fully specified (residue 21); printed as (AcG)GLYACHMGPIT(1-nal)VCQPLR(MeG)K; also: homodimer, Lys21 epsilon-N joined to branched tertiary amide linker carrying PEG
notes: also called Peptide 1
